Laboratory results published in IntAct's records for PubMed 21816275.

B1: Septum site-determining protein MinD (Escherichia coli (strain K12)), P0AEZ3 (parent)
chain: MARIIVVTSGKGGVGKTTSSAAIATGLAQKGKKTVVIDFDIGLRNLDLIMGCERRVVYDFVNVIQGDATLNQALIKDKRTENLYILPASQTRDKDALTREGVAKVLDDLKAMDFEFIVCDSPAGIETGALMALYFADEAIITTNPEVSSVRDSDRILGILASKSRRAENGEEPIKEHLLLTRYNPGRVSRGDMLSMEDVLEILRIKLVGVIPEDQSVLRASNQGEPVILDINADAGKAYADTVERLLGEERPFRFIEEEKKGFLKRLFGG

Variants of: B1
Conditions: with mine_ecoli minE

Row | Variant | effect of a mutation on the interaction
1 | G224C | disrupting interaction
2 | D192Y | disrupting interaction
3 | D198R | disrupting interaction
4 | M193L | disrupting interaction
5 | N222A | disrupting interaction
